Our source for the stoichiometry N values is PMC6910826.

As usually defined, the stoichiometry N is the number of molecules, sites or subunits per partner or assembly.

The assay concerns the target 6xHis-Zasp52-PK-FLAG (Drosophila melanogaster). Nature of the assay: cross-linking; purified 6xHis-Zasp52-PK-FLAG incubated with EGS or alone; SDS-PAGE and anti-Flag western blot.

Chain of 6xHis-Zasp52-PK-FLAG (A1ZA47 whole entry): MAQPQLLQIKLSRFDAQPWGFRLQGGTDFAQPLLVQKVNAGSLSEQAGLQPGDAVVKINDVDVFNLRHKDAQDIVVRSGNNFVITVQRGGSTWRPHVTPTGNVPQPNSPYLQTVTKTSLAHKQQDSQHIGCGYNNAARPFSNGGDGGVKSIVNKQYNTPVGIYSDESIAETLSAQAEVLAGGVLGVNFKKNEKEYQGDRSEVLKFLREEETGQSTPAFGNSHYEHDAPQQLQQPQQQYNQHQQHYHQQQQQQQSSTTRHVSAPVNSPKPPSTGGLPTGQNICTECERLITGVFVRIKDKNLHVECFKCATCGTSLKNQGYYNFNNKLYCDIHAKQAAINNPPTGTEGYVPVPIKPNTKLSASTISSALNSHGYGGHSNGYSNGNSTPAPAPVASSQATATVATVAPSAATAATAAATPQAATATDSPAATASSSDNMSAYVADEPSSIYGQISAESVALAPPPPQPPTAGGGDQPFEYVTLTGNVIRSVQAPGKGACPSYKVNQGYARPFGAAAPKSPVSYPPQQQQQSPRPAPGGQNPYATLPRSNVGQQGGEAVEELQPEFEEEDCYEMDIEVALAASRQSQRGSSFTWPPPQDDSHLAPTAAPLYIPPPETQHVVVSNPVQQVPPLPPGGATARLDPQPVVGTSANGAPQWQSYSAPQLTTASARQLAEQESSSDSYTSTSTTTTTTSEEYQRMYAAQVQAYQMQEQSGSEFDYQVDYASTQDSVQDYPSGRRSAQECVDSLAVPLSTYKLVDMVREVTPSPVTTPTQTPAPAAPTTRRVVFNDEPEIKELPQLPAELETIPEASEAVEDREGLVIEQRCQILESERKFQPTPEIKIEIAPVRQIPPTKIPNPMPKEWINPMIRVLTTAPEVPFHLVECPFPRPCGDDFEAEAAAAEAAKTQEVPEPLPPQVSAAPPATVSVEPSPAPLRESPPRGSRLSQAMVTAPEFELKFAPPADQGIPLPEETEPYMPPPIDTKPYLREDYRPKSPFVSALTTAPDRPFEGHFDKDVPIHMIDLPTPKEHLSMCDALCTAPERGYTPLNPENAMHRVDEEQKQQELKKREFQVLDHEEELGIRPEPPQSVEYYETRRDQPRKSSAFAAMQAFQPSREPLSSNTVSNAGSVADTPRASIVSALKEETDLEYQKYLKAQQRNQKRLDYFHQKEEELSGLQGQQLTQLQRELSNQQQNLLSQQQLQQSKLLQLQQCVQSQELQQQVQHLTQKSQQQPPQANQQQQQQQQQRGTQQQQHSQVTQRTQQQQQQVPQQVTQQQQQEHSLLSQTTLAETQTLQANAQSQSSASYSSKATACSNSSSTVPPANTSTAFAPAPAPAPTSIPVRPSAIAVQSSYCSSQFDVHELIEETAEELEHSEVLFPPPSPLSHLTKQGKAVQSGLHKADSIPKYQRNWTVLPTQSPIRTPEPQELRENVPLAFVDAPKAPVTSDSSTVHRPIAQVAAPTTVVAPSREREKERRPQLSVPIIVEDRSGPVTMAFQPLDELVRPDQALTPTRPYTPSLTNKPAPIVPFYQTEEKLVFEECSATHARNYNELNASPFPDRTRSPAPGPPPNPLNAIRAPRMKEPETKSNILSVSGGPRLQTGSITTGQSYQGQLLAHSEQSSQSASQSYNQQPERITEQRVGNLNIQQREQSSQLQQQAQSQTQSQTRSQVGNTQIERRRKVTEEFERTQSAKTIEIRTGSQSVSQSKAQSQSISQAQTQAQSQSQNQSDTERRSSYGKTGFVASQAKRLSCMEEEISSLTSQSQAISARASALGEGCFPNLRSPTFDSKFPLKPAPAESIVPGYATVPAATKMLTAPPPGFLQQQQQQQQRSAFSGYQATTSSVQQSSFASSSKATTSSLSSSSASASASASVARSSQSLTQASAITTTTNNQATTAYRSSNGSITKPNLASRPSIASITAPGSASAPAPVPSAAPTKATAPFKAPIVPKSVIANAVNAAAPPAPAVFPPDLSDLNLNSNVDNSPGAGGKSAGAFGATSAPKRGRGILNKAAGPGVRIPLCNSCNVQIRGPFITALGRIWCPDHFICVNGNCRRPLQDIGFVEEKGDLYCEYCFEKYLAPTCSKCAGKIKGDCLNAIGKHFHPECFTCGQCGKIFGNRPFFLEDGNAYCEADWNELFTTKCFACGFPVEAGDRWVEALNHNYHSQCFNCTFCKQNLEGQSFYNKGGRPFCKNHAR

In the case of 6xHis-Zasp52-PK-FLAG (natural protein), the stoichiometry N amounted to 2.
